pKd: −log10 of the molar value.
Target: EEEV PE6 virus-like particle (VLP) (Eastern equine encephalitis virus, strain PE6)
Assay: BLI

Row | Substance | pKd
1 | VLDLR LA3-4-Fc (Fc fusion) | 5.41
2 | VLDLR LA3-5-Fc (Fc fusion) | 7.49
3 | VLDLR LA1-8-Fc (Fc fusion) | 8.54
4 | VLDLR LA4-5-Fc (Fc fusion) | 4.92
5 | VLDLR LA4-6-Fc (Fc fusion) | 5.64
6 | VLDLR LA1-3-Fc (Fc fusion) | 6.44
7 | VLDLR LA2-3-Fc (Fc fusion) | 5.74
8 | S. vulgaris VLDLR LA1-8-Fc (Fc fusion) | 7.96
9 | VLDLR LA2-4-Fc (Fc fusion) | 5.96
10 | VLDLR LA2-5-Fc (Fc fusion) | 7.37
11 | VLDLR LA1-2-Fc (Fc fusion) | 6.30
12 | VLDLR LA3-6-Fc (Fc fusion) | 7.15
13 | VLDLR LA5-6-Fc (Fc fusion) | 5.38

Target: EEEV E2 domain B (Eastern equine encephalitis virus)
Assay: BLI

Row | Substance | pKd
14 | VLDLR LA1-8-Fc (Fc fusion) | 5.85
